± gives the standard deviation of the averaged measurements.
Tested on: Saccharomyces cerevisiae
Test: protein stability index of tFT-peptide fusion (C-terminal peptide) (PSI (0-1 scale)); higher = more stable (slower turnover)
Settings: genetic background: wild type; temperature: 30 C
Description: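 Multiplexed protein stability (MPS) profiling in S. cerevisiae. Random 12-aa peptides (tFT-X12 library) are fused to the C-terminus of a sfGFP-mCherry tandem fluorescent timer, after mCherry and a GGGS linker. Cells are FACS-sorted into 8 mCherry/sfGFP bins and deep-sequenced. The protein stability index (PSI) is the read-weighted bin average, scaled from 0 (unstable) to 1 (stable). Only peptides with >10 reads are reported; cells were grown at 30 °C in SC-His with glucose.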
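Further: PSI is a weighted mean of sequencing reads over stability bins, variants kept only with over 10 reads, mCherry proximal and sfGFP distal, peptide attached via GGGS linker.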

Row | Sequence | protein stability index
1 | EACVAAMTPKSL | 0.657 ± 0.0083
2 | EADRAPSGGAGN | 0.673 ± 0.013
3 | EAGAKEWGAKQT | 0.7006 ± 0.007
4 | EAGVGSGGGRCG | 0.673 ± 0.058
5 | EALTLLGAFYLP | 0.694 ± 0.025
6 | EALVVLGVGFFG | 0.651 ± 0.021
7 | EARLGVGRCGTG | 0.67 ± 0.0098
8 | EAVVWGTLLCGG | 0.694 ± 0.01
9 | ECAGVVRAKLPA | 0.718 ± 0.05
10 | ECGLGGWGGLGV | 0.657 ± 0.078
11 | ECIKVRGQWREI | 0.662 ± 0.011
12 | EDCAGIFCQSVK | 0.68 ± 0.015
13 | EDVPRGWACRGR | 0.747 ± 0.024
14 | EECSYERRRTRE | 0.8059 ± 0.0017
15 | EEGGTRGASAVV | 0.7134 ± 0.0024
16 | EEKASKSSRLKK | 0.699 ± 0.036
17 | EEQKAKQKQEYG | 0.639 ± 0.077
18 | EERVEYHVALEV | 0.664 ± 0.024
19 | EESAHPCRREVR | 0.58988 ± 3.9e-05
20 | EESKEKKKNEEE | 0.63584 ± 4.9e-05
21 | EEVVAQYCITLS | 0.5864 ± 0.0021
22 | EFLGRVPNTQDG | 0.668 ± 0.078
23 | EGAGSAPCMVQG | 0.68 ± 0.026
24 | EGDGAVGKTRGD | 0.691 ± 0.042
25 | EGEDRVEPGTQT | 0.722 ± 0.045

Row | Sequence | protein stability index
26 | EGGERGSKIVDT | 0.593 ± 0.029
27 | EGGILHKKFTKS | 0.696 ± 0.025
28 | EGGKGGLVIVGG | 0.709 ± 0.11
29 | EGGWRLVWGRGG | 0.7222 ± 0.0024
30 | EGKNEFINGTTT | 0.696 ± 0.023
31 | EGKPALANSTVR | 0.712 ± 0.052
32 | EGLCFLICKERS | 0.729 ± 0.025
33 | EGPEGRDVVRRY | 0.644 ± 0.0096
34 | EGRRAVGRGRGR | 0.672 ± 0.05
35 | EGRTQTLPSRVT | 0.638 ± 0.05
36 | EGVWIVMFCGLL | 0.504 ± 0.11
37 | EIAGKGFRLGEW | 0.74 ± 0.052
38 | EIKNKENKLKKT | 0.684 ± 0.03
39 | EILGFVFGFFFL | 0.5711 ± 0.0016
40 | EIRPRPYLCERF | 0.7253 ± 0.0064
41 | EISKKKKQTKRK | 0.768 ± 0.12
42 | EIVTTEINKKTN | 0.7115 ± 0.004
43 | EKEGPDRGECGL | 0.682 ± 0.0089
44 | EKGRERREGGRK | 0.749 ± 0.044
45 | EKKEKKETTDTE | 0.693 ± 0.023
46 | EKKKEKKGKKRE | 0.683 ± 0.029
47 | EKLVAERGMYAT | 0.684 ± 0.041
48 | EKQKIIRSGCES | 0.746 ± 0.16
49 | EKRDRKKNPRGS | 0.744 ± 0.1
50 | EKSEKSRGNRYV | 0.72 ± 0.076

Row | Sequence | protein stability index
51 | EKTKEHRNDSQR | 0.695 ± 0.014
52 | EKVGVTVLLRHV | 0.679 ± 0.038
53 | ELGARGGRGGGR | 0.739 ± 0.038
54 | ELGGRGPGGWVG | 0.7149 ± 0.0041
55 | ELGLGGCGGLGV | 0.7 ± 0.03
56 | ELGSIYDGWARA | 0.691 ± 0.011
57 | ELKGRQLGSNLK | 0.691 ± 0.045
58 | ELKKKYNEKKRI | 0.6885 ± 0.002
59 | ELKVVVTPLVPS | 0.588 ± 0.053
60 | EMGGLKACWGVG | 0.572 ± 0.022
61 | EMPQNSKKNQAA | 0.672 ± 0.06
62 | EMRAGNWWGREG | 0.728 ± 0.054
63 | ENKGKKITITNE | 0.625 ± 0.018
64 | ENPIASQWVRRY | 0.6737 ± 0.0039
65 | ENQGEKKKKKKR | 0.703 ± 0.022
66 | ENRERVVENLRD | 0.715 ± 0.04
67 | ENRGSGLQACGA | 0.716 ± 0.1
68 | EPASLTVFEGTS | 0.587 ± 0.022
69 | EPPGWGRGTAQG | 0.623 ± 0.07
70 | EPPQPPSLPPLF | 0.739 ± 0.0085
71 | EQFQLCAREVAK | 0.761 ± 0.047
72 | EQICNCKIIMVE | 0.5669 ± 0.003
73 | EQVTCGGIRVGQ | 0.656 ± 0.086
74 | ERCLRYRTVVDW | 0.632 ± 0.063
75 | ERGACPGLRQLN | 0.649 ± 0.015

Row | Sequence | protein stability index
76 | ERGLATGRGGWV | 0.733 ± 0.064
77 | ERGSRKKKDRRR | 0.639 ± 0.01
78 | ERIGAREQPSAT | 0.7075 ± 0.0056
79 | ERKKKNPSTTRR | 0.684 ± 0.0086
80 | ERNEERKATTRS | 0.726 ± 0.067
81 | ERNKQNVTQKVK | 0.723 ± 0.028
82 | ERPIRPQCVHRM | 0.73 ± 0.015
83 | ERPRRDTTVSDT | 0.653 ± 0.0083
84 | ERQSMNKRERNP | 0.683 ± 0.023
85 | ERRKQDERKRRV | 0.7059 ± 0.00075
86 | ERRSGGHCRKSG | 0.685 ± 0.036
87 | ERTKKKRRKEKH | 0.663 ± 0.011
88 | ERVWRAALAPVV | 0.618 ± 0.045
89 | ERWGGSGGGCAA | 0.67 ± 0.051
90 | ESFFHIKPVLYI | 0.647 ± 0.058
91 | ESFGGKAGRDSM | 0.772 ± 0.049
92 | ESFLLSLNLLSY | 0.6155 ± 0.0037
93 | ESNRHSHVVGPA | 0.683 ± 0.013
94 | ESSPQPIPSRLA | 0.707 ± 0.016
95 | ESYRTYNSIQVY | 0.518 ± 0.015
96 | ETNSSSEFPLNF | 0.755 ± 0.0089
97 | ETRIRGVMPRAY | 0.659 ± 0.014
98 | ETWRRIDRLFGS | 0.619 ± 0.058
99 | EVAVELIGAPGL | 0.699 ± 0.1
100 | EVDRRRSVITLP | 0.668 ± 0.033

Row | Sequence | protein stability index
101 | EVEGGLSFSARG | 0.706 ± 0.074
102 | EVEINGRLVGKM | 0.646 ± 0.097
103 | EVKDDSKVVVYV | 0.666 ± 0.022
104 | EVKERGRGCREG | 0.659 ± 0.03
105 | EVRRGVGGAWEG | 0.648 ± 0.011
106 | EVSGGNRYWCGV | 0.719 ± 0.022
107 | EVSHLGLVCGHL | 0.653 ± 0.081
108 | EVSSGGQRVGRS | 0.763 ± 0.018
109 | EVWGSVETSCAS | 0.739 ± 0.17
110 | EWGRSGVRCRLG | 0.571 ± 0.052
111 | EWRWPTELNRKG | 0.75 ± 0.051
112 | EYAVLLFPHHPG | 0.623 ± 0.041
113 | EYGSWIRTASRV | 0.726 ± 0.016
114 | EYKKKKTKANDT | 0.6944 ± 0.0015
115 | EYRPPVPPPFPP | 0.579 ± 0.033
116 | FAAGIMWQSGLK | 0.657 ± 0.019
117 | FAEWVRFWPGLV | 0.6682 ± 0.0064
118 | FAHRVVCFCVFS | 0.505 ± 0.038
119 | FALAVPLDPWSS | 0.737 ± 0.065
120 | FAQRRGPAALNI | 0.70492 ± 0.00052
121 | FARELGNLNVEK | 0.761 ± 0.056
122 | FASPPPLPLPPH | 0.694 ± 0.02
123 | FCFHPLTGKLSG | 0.6536 ± 0.0029
124 | FCFRFISCPLHF | 0.549 ± 0.047
125 | FCGLVIRFSEKV | 0.653 ± 0.017

Row | Sequence | protein stability index
126 | FCLFTYIPSSCL | 0.664 ± 0.035
127 | FCLGSFMFEGGR | 0.723 ± 0.032
128 | FCPPLSFPPPLS | 0.718 ± 0.13
129 | FCRCNYLYRIPK | 0.6615 ± 0.0026
130 | FCRVCLAFLSGL | 0.781 ± 0.22
131 | FCRYSRAWKDFV | 0.737 ± 0.087
132 | FCSLLLFRFVVL | 0.517 ± 0.015
133 | FCSPLPSSPPLP | 0.658 ± 0.028
134 | FCSRVGFVFLRL | 0.489 ± 0.024
135 | FCSSVSFPPAPL | 0.642 ± 0.035
136 | FDFFLPFLCSSL | 0.827 ± 0.2
137 | FDMYACCQRGAV | 0.6639 ± 0.0027
138 | FDRWEDCKGTRD | 0.71 ± 0.013
139 | FFCLVPLALPRF | 0.649 ± 0.019
140 | FFFGPPPCRSFF | 0.731 ± 0.019
141 | FFFPSPPPPSLV | 0.749 ± 0.05
142 | FFLRSPLFPCSH | 0.72173 ± 0.00052
143 | FFMWDLLFLSLD | 0.669 ± 0.011
144 | FFPATVGPFSFP | 0.731 ± 0.015
145 | FFPQPTPVSISR | 0.8264 ± 0.0039
146 | FFPSSPFLPPPR | 0.657 ± 0.1
